How the values were obtained:
[1] = molecular target: T1, recombinant human Trop-2 (Sino Biological, Cat. No: 10428-H08H) (human, UniProt P09758 27-274); assay: ELISA, recombinant human Trop-2 coated at 1 ug/mL, anti-human IgG-HRP
T1 construct: Coated on the ELISA plate
T1 sequence (looked up): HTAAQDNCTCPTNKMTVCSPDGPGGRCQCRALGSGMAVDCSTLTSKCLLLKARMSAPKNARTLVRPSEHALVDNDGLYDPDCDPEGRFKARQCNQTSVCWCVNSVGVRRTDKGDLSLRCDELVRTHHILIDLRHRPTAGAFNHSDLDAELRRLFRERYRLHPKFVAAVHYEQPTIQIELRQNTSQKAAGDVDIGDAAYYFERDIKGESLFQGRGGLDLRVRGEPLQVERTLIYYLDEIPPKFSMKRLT

[2] = molecular target: T2, Trop-2 on BxPC3 cells (UniProt P09758 27-323, limits assumed); assay: flow cytometry of PKH26-stained BxPC3 and CFSE-stained Jurkat cells, as in Example 9
T2 construct: whole, on cells; also called BxPC3 cells with high expression Trop-2
T2 sequence (looked up): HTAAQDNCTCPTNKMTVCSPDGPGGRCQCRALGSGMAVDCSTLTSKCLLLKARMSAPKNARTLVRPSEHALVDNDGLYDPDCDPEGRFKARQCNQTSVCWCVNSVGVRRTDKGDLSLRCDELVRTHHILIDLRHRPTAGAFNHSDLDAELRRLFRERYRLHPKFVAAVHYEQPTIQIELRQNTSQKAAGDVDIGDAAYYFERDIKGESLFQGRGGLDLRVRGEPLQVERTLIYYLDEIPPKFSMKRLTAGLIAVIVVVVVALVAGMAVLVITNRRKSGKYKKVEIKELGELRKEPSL

B1: heterodimeric anti-Trop-2/anti-CD3-scFv bispecific antibody (bispecific antibody)
heavy: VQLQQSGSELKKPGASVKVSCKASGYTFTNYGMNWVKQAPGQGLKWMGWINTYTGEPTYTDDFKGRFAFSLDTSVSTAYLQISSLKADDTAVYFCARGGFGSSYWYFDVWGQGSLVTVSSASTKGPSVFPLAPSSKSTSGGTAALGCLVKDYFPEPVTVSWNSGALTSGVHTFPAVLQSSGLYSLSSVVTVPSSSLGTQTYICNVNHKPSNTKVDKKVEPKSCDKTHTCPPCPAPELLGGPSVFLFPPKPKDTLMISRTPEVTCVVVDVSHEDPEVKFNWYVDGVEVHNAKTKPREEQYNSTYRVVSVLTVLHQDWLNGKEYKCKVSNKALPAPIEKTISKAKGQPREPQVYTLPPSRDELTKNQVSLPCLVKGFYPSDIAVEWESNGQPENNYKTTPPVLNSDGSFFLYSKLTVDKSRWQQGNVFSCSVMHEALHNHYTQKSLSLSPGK
light: DIQLTQSPSSLSASVGDRVSITCKASQDVSIAVAWYQQKPGKAPKLLIYSASYRYTGVPDRFSGSGSGTDFTLTISSLQPEDFAVYYCQQHYITPLTFGAGTKVEIKRTVAAPSVFIFPPSDEQLKSGTASVVCLLNNFYPREAKVQWKVDNALQSGNSQESVTEQDSKDSTYSLSSTLTLSKADYEKHKVYACEVTHQGLSSPVTKSFNRGEC
scFv: not shown
notes: also called anti-Trop2/anti CD3-scFv heterodimer; Anti-Trop-2/CD3 heterodimeric BsAb
[1]
  binding result: binds
[2]
  binding result: binds
